Laboratory results published in patent US20150283219A1 (INVECTYS, published 2015).

B1: UCP1 (TERT44-58) (peptide)
peptide: PAAFRALVAQCLVCV
notes: Synthetic 15-mer (>80% purity, Activotec) derived from human TERT; also called UCP44; p44
B2: UCP2 (TERT578-592) (peptide)
peptide: KSVWSKLQSIGIRQH
notes: Synthetic 15-mer (>80% purity, Activotec) derived from human TERT; also called UCP578; p578
B3: UCP4 (TERT1041-1055) (peptide)
peptide: SLCYSILKAKNAGMS
notes: Synthetic 15-mer (>80% purity, Activotec) derived from human TERT; also called UCP1041; p1041

Key:
Assay in all cases: competitive ELISA, mean of three experiments
[1] = biological target: HLA-DR7 (human)
[2] = biological target: HLA-DRB5 (human)
[3] = biological target: HLA-DRB4 (human)
[4] = biological target: HLA-DR15 (human)
[5] = biological target: HLA-DR4 (human)
[6] = biological target: HLA-DRB3 (human)
[7] = biological target: HLA-DR1 (human)

Binder	relative affinity (RA, IC50 of UCP / IC50 of reference peptide) [1]	relative affinity (RA, IC50 of UCP / IC50 of reference peptide) [2]	relative affinity (RA, IC50 of UCP / IC50 of reference peptide) [3]	relative affinity (RA, IC50 of UCP / IC50 of reference peptide) [4]	relative affinity (RA, IC50 of UCP / IC50 of reference peptide) [5]	relative affinity (RA, IC50 of UCP / IC50 of reference peptide) [6]	relative affinity (RA, IC50 of UCP / IC50 of reference peptide) [7]
B1	3 ratio	1 ratio	4 ratio	4 ratio	50 ratio	30 ratio	3 ratio
B2	1 ratio	1 ratio	229 ratio	8 ratio	112 ratio	154 ratio	0.2 ratio
B3	8 ratio	0.5 ratio	–	3 ratio	34 ratio	154 ratio	0.3 ratio
